In assay [1] the target is CCR5 (as used in the NAMPTcif competition assay of FIG. 9b). The assay is described as follows: competition assay: inhibition of NAMPT binding to CCR5 by NAMPTcif (FIG. 9b); format not described.
Assay [2] has as its target T1, human recombinant NAMPT(1) (recombinant human visfatin, PeproTech) (human, UniProt P43490 27-491, limits assumed).
T1 construct: Bought protein; also called hrNAMPT(1); hrNAMPT source 1
The assay is described as follows: ELISA: plate coated with 20 nM GST-hrCCR5, 0-800 nM hrNAMPT(1), biotinylated anti-NAMPT detection, BSA signal deducted, non-linear fit. Here is the method: Wells were blocked for 1 h at room temperature with 1% BSA in PBS containing 0.05% Tween-20 (PBS-T).

The target in assay [3] is T2, recombinant mouse CCR5 (MyBioSource) (mouse, UniProt P51682 1-354, limits assumed).
T2 construct: Coated on the ELISA plate at 20 nM; also called mrCCR5; mouse recombinant CCR5
The assay is described as follows: competitive ELISA: plate coated with 20 nM mrCCR5, 0-400 nM mrCCL4 with 100 nM hrNAMPT(1) as competitor, bound hrNAMPT(1) detected. Here is the method:
Then, wells were blocked for 1 h at room temperature with 1% BSA in PBS containing 0.05% Tween-20 (PBS-T).

T2 sequence (P51682 whole entry): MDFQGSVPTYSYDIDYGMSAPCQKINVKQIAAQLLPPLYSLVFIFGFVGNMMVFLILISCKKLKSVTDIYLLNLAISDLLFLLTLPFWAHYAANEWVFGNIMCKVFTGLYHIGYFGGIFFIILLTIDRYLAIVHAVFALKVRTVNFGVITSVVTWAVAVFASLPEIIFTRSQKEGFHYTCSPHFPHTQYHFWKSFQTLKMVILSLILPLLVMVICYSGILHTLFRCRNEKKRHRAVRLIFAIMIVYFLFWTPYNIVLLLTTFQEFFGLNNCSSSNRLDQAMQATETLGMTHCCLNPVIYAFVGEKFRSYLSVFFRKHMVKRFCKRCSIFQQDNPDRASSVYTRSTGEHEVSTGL
T1 sequence (P43490 27-491 limits assumed): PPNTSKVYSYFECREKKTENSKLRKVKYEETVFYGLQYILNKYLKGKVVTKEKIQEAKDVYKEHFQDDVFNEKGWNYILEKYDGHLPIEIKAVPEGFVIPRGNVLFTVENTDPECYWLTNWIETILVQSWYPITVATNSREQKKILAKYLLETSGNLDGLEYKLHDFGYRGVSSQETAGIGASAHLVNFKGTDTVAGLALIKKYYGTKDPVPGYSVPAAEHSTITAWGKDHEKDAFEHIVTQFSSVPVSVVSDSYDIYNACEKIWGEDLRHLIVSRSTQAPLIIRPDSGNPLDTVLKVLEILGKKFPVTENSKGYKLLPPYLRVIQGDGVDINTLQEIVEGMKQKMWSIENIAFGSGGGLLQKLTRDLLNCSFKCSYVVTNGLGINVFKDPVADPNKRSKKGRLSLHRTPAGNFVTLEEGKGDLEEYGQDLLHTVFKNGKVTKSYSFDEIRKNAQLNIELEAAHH

B1: NAMPT402-491 (recombinant C-terminal 'cytokine finger' fragment of NAMPT) (ligand)
chain: MSYVVTNGLGVNVFKDPVADPNKRSKKGRLSLHRTPAGNFVTLEEGKGDLEEYGHDLLHTVFKNGKVTKSYSFDEVRKNAQLNIEQDVAPHHHHHHH
notes: Made in E. coli BL21(DE3) from pET22b(+) and purified on HisTap; also called NAMPTcif; cif
Turning to B1, the IC50 in assay [1] amounted to 21.5 nM.

B2: GST-fused recombinant human CCR5 (Abcam) (receptor)
chain: not shown
notes: Coated on the ELISA plate at 20 nM; GST is put first here only by convention; also called hrCCR5; human recombinant CCR5; not shown: GST fusion partner
In the case of B2, the Kd in assay [2] stood at 172 nM.

B3: recombinant murine CCL4/MIP-1beta (PeproTech) (ligand, mouse, UniProt P14097 24-92, looked up)
chain: APMGSDPPTSCCFSYTSRQLHRSFVMDYYETSSLCSKPAVVFLTKRGRQICANPSEPWVTEYMSDLELN
notes: also called mrCCL4; mouse recombinant CCL4
For the molecule B3, the IC50 in assay [3] was 34.4 nM.

(Values after patent US20240041922A1 (MONASH UNIVERSITY, published 2024).)
